Values belong to the molecule of their own block, whether it stands above or below them.
Legend:
Vms1 (Vms1^1-417) = biological target: T1, Vms1 (Vms1^1-417) (Saccharomyces cerevisiae, UniProt Q04311); test: lipid blot on nitrocellulose; assay type: binding; conditions: TBS pH 7.5, 4 °C, 3% BSA (blot); competitive with LRS for the MTD
T1 sequence (Q04311 1-417): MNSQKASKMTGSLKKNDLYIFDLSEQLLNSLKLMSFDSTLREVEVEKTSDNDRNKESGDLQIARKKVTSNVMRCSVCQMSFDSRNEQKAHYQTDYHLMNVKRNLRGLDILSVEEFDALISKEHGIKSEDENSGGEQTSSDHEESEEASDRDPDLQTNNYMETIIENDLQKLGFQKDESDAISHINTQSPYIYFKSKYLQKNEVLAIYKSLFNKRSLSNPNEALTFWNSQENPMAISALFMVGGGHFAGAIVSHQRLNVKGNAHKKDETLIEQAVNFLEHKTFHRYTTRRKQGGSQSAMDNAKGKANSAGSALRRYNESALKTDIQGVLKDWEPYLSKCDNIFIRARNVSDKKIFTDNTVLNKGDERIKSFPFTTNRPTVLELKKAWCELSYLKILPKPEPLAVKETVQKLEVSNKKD

[1] = biological target: T2, C-terminal fragment of PreScission-cleaved His10-Vms1(1-182-PP-417)-HA (S. cerevisiae, UniProt Q04311 183-417); test: SEC
T2 sequence (looked up): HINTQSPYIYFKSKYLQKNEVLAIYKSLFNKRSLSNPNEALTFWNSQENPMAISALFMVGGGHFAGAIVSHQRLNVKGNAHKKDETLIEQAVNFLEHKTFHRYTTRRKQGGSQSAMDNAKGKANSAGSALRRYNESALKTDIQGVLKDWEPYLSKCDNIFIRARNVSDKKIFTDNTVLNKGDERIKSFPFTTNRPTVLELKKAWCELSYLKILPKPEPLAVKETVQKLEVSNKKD

[2] = biological target: T3, C-terminal fragment of PreScission-cleaved His10-Vms1(1-182-PP-417, C387A, E25C, S228C)-HA (S. cerevisiae, UniProt Q04311 183-417, S228C | C387A); test: cross-linking
T3 sequence (looked up): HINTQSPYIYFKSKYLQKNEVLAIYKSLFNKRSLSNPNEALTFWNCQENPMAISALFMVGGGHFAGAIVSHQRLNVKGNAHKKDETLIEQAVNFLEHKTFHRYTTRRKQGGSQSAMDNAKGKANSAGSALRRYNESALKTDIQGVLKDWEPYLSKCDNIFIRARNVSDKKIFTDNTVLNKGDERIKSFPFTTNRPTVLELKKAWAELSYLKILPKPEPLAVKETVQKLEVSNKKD

[3] = biological target: T4, C-terminal fragment of PreScission-cleaved His10-Vms1(1-182-PP-417, C387A, K32C, T224C)-HA (S. cerevisiae, UniProt Q04311 183-417, T224C | C387A); test: cross-linking
T4 sequence (looked up): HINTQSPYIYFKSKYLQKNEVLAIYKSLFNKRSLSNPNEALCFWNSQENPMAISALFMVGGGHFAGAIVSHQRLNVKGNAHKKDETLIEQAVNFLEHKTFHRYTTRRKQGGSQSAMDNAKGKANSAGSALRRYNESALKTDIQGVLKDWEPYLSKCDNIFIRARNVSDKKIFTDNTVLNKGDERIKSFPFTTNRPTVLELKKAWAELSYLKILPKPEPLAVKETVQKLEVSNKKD

[4] = biological target: T5, C-terminal fragment of PreScission-cleaved His10-Vms1(1-182-PP-417, C387A, K32C, N218C)-HA (S. cerevisiae, UniProt Q04311 183-417, N218C | C387A); test: cross-linking
T5 sequence (looked up): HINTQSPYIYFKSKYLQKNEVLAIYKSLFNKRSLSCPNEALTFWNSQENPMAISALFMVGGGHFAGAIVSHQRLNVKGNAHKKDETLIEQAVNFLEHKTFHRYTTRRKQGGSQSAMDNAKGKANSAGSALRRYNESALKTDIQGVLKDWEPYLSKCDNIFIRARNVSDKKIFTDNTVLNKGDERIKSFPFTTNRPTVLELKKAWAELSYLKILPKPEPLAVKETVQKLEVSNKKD

Molecule: CC(C)[C@@H](C)/C=C/[C@@H](C)[C@H]1CC[C@@H]2[C@]1(C)CC[C@H]1[C@]23C=C[C@]2(C[C@@H](O)CC[C@]12C)OO3 [EP, ergosterol peroxide]
lipid blot on nitrocellulose; liposome floatation assay (Vms1 (Vms1^1-417)): Vms1 displayed comparable binding to nitrocellulose-spotted commercial EP and the purified C28H44O3

B3: N-terminal fragment of PreScission-cleaved His10-Vms1(1-182-PP-417, C387A, K32C, T224C or N218C)-HA (domain or fragment, S. cerevisiae, UniProt Q04311 1-182, looked up)
chain: MNSQKASKMTGSLKKNDLYIFDLSEQLLNSLCLMSFDSTLREVEVEKTSDNDRNKESGDLQIARKKVTSNVMRCSVCQMSFDSRNEQKAHYQTDYHLMNVKRNLRGLDILSVEEFDALISKEHGIKSEDENSGGEQTSSDHEESEEASDRDPDLQTNNYMETIIENDLQKLGFQKDESDAIS
binding result [3]: binds
binding result [4]: binds

Continued, values first:

binding result [1]: binds
B1: N-terminal fragment of PreScission-cleaved His10-Vms1(1-182-PP-417)-HA (domain or fragment, S. cerevisiae, UniProt Q04311 1-182, looked up)
chain: MNSQKASKMTGSLKKNDLYIFDLSEQLLNSLKLMSFDSTLREVEVEKTSDNDRNKESGDLQIARKKVTSNVMRCSVCQMSFDSRNEQKAHYQTDYHLMNVKRNLRGLDILSVEEFDALISKEHGIKSEDENSGGEQTSSDHEESEEASDRDPDLQTNNYMETIIENDLQKLGFQKDESDAIS

binding result [2]: binds
B2: N-terminal fragment of PreScission-cleaved His10-Vms1(1-182-PP-417, C387A, E25C, S228C)-HA (domain or fragment, S. cerevisiae, UniProt Q04311 1-182, looked up)
chain: MNSQKASKMTGSLKKNDLYIFDLSCQLLNSLKLMSFDSTLREVEVEKTSDNDRNKESGDLQIARKKVTSNVMRCSVCQMSFDSRNEQKAHYQTDYHLMNVKRNLRGLDILSVEEFDALISKEHGIKSEDENSGGEQTSSDHEESEEASDRDPDLQTNNYMETIIENDLQKLGFQKDESDAIS

From article PMC5837041 (Molecular cell, 2017)
